Laboratory results taken from the nanobody polyreactivity screen of Harvey et al. (2022).

Experiment: yeast display, Sf9 membrane polyspecificity reagent, FACS + sequencing; frameworks hold sequencing errors
In short: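 A nanobody's polyreactivity label depends on the gate it was sorted from. Yeast display cells were stained with 10% biotinylated, detergent-solubilized Sf9 membrane reagent for 1 hour at 4 °C, enriched on streptavidin microbeads and sorted by FACS. The low and high (top ~1%) gates were set on anti-HA fluorescence for expression and streptavidin fluorescence for reagent binding.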

Row | Sequence | polyreactivity (PSR sort gate)
1 | QFQLVESGGGLVQAGGSLRLSCAASGRIFYGYAMVWYRQAPGKERDLVAAISWRGGRTYYADSVKGRFTISRDNAKNTVYLQMNSLKPEDTAVYYCNKVFPPQGQLRNMYYWGQGTQVTVSS | high polyreactivity
2 | QVHLVESGGGLVQAGGSLRLSCAASGRIFYTNAMGWYRQAPGKERELVAVISWGGDTTYYADSVKGRFTISRDNAKNTVSLQMNSLKPEDTEVYYCAARSKYTHSRQSDYWGQGTQVTVSS | low polyreactivity
3 | QVQLVESGGGLVQAGGSLRLSCAASGSTFYRYAMGWYRQAPGKERELVAAITRGGGNTYYADSVKGRFTISRDNAKNTVYLQMNSLKPEDTAVYYCNTDPTLRSRVGIWGFDYWGQGTQVTVSS | high polyreactivity
4 | QVQLVESGGGLVQAGGSLRLSCAASGRIFAFYAMGWYRQAPGKEREFVAAITYSGGNTNYADSVKGRFTISRDNAKNTVYLQMNSLKPEDTAVYYCAAALVYGVYYQEDYWGQGTQVTVSS | low polyreactivity
5 | QVQLVESGGGLVQAGGSLRLSCSASGFIFITVNAMGWYRQAPGKEREFVAAITRSGTGTYYADSVKGRFTISRDHAKNTVYLQMNSLKPEDTAVYYCAADATSTGAYDYWGQGTQVTVSS | low polyreactivity
6 | QVQLVESGGGLVQAGGSLRLSCAASGLIFKSYLMGSYRQAPGKERELVAGITGSGGTTYYADSVKGRFTISRDNAKNTVYLQMNSLKPEDTAVYYCAARSRSRPKYDYWGQGTQVTVSS | high polyreactivity
7 | QVQLVESGGGLVQAGGSLRLSCAASGRTFRQYAMGWYRQAPGKERELVARIRWRGGTTYYADSVKGRFTISRDNAKNTVYLQMISLKPEDTAVYYCAADKYGTEYDYWGQGTQVTVSS | high polyreactivity
8 | QVQLVESGGGLVQAGGSLRLTCAASGSTFRENAMGWNRQAPGKERELVAAITSGGSTYYADSVKGRFTISRDNAKNTVYLQMNSLKPEDTAVYYGNADLEPYDYWGQGTQVTVSS | low polyreactivity
9 | QVQLVESGGGLVQAGGSLRLSCAASGSIFVNNALGWDRQAPGKDWELVAAISSRGGSTYYADSVKGRFTISRDNAKNTVYLQMHSLKPEDTAVYYCAAEYDGPYYSFYPEQRYYWGQGNQVTVSS | low polyreactivity
10 | QVQLVESGGGLVQAGGSLRLSCAASGSIIWYYAMGWYRQAPGKERELVAAISISGSTYYADSVKGRFTISRDNAKNTVYLQMNSLKPEDTAVYYCAARKFFWRSNYDYWGQGTQVTVSS | low polyreactivity
11 | QVQLVESGGGLVQAGCSLRLSCAASGRTIAYNAMGWYRQAPGKERELVAAISWSGGSTYYADSVKGRFTISRDNAKNTVYLQMNSMKPEDSAVYYCAKRFGQYRYPYDYWGQGNQVTVSS | high polyreactivity
12 | QVQLVESGGGLVQAGGSLRLSCAASGSIFVHNTMGWYRQAPGKERELVAAITRSVGRTYYADSVKGRFTISRDNAKNTVYLQMNSLKPEDTAVYYCAARKNYGSRLSYEYWGQGTQVTVSS | high polyreactivity
13 | QVQLVESGGGLVQAGGSLRLSCAASGSIFIHNAMGWYRQAPGKERELVPGITTGGSTYYADSVKGRFTISRDNAKNTVYLQMNSLKPEDTAVYYCATARSYLTYSYHYDYWGQGTQVTVSS | low polyreactivity
14 | QVQLVESGGGLVQAGGSLRLSCAASGSIFPRNAMGWSRQAPGKERELVARINSGGTTKYADSVKGRFTISRDNAKNTVYLQMNSLKPEDTAVYYCNADTYILDPLRKSYGYDYWGQGTQVTVSS | low polyreactivity
15 | QVQLVESGGGLVQAGGSLRLSCAASGSIFYRNAMGWYRQAPGNERELVAAITSGASTYYADSVKGRFTISRDNAKNTVYLQMNSLKPEDTEVYYCAADSDSQWGMDYWGQGTQVTVSS | low polyreactivity
16 | QVQLVESGGGLVQAGGSLRLSCAASGRTFKYNAMGWYRQAPGKERELVAAISSTGSTNYADSVKGRFTISRDNAKNTVYLQMNSLKPEDTAVYYCAASYFFVQWGWYYYWGQGTQVTVSS | low polyreactivity
17 | QIQLVESCGGLVQPGGSLRLSCAASGFTFYRYSRGWYRQAPGKERELVAPISTSGVSTYYADSVKGRFTISRDNAKNTVYLQMNSLKPEDTAVYYWAASAGPRASYYYWGQGTQVTVSS | high polyreactivity
18 | QVQLVESGGGLVQAGGSLRLSCAASGSIFNTYVMGWYRQAPGKERELVAAITSSGGRTYYADSVKGRFTISRDNAKNTVYLQMNSLKPEDTAVYYCNTAQRWVGRNDYWGQGTQVTVSS | high polyreactivity
19 | QVQLVESGGGLVQAGGSLRLSCAASGSIFSVYVMGWYRQAPGKERELVAAISWSDSDTYYADSVKGRFTISRDNAKNTVYLQMNSLKPEDTAVYYCAAETFDYADYIANGSGEYDYWGQGTQVTVSS | high polyreactivity
20 | QVQLGESGGGLVQAGGSLRLSCAASGFTFTHYSMGWYRQAPGKERELVAAISTSGGSTYYADSVKGRFTISRDTAKNSVYLQMNSLKPEDTAVYYCAARRDGCVLWGYYYWGQGTQVTVSS | low polyreactivity
21 | QVHLVESGGGLVQAGGSLRLSCAASGRNFLYYAMGWYRQAPGKERELVAASTSGDSTYYADSVKGRFTISRDNAKNTVYLQRNSLKPEDTAVYYCNAYQWGGRYWLVTYDYWGQGTLVTVSS | low polyreactivity
22 | QVQLVESGGGLVQAGGSLRLSCAASGRTFGGNGMGWYRQAPGKERELVASISFSGGAGTYYADSVKGRFTISRDIAKNTVYLQMNSLKPEDTAVYYCAKRYVTPTYRRYYWGQGTQVTVSS | high polyreactivity

Row | Sequence | polyreactivity (PSR sort gate)
23 | QVQLVESGGGLVQAGGSLRLSCAASGRILYVYVMGWYRQAPGKERELVAAITTSGDSTYYADSVKGRFTISRDNAKNTVYLQMNRLKPEDTAVYYCNAEEHDYVAHMDYWGQGTQVTVSS | low polyreactivity
24 | QVHLVDSGGGLVQAGGSLRLSCAASGRIFSPYAMGWYRQAPGKERELVASINYSGGSTYADSVKGRFTISRDNAKNTVYLQMNSLKPEDTAVYYCAAEDIGRYYRLDYWGQGTQVSVSS | low polyreactivity
25 | QVHLVESGGGLVQAGGSLRLSCAASGRIFIYNAMGWYRPPPGKERELVAAINRSGVSTHYADSVKGRFTISRDNAKNTVFLQMNSLKPEDTAVYYCARTVYGARSYDYWGQGTQVTVSS | low polyreactivity
26 | QDQLVESGGGLVQAGGSLRLSCAPSGYFDLNALGWYRQAPGKERELVAANTDGGSTNYADSVKGRFTISRDNAKNTFYLQMNSLKPEDTAVYYCAADRGHTILHGGYWGQGTQVTVSS | low polyreactivity
27 | QVQLVESGGGLVQAGGSLRLSCAASGFTFFIYAMGWYTQAPGKEREFVAAITGSGGSTYYADSEKGRFTISRDNAKNTVYLQMNSLKTEVTAVYYCATGYWGRRRGGWRSGYWGQGTQVTVSS | high polyreactivity
28 | QVQLVESGGGLGQAGGSLRLSCAASGRIFSYNSMGWYRPATGKERELVAAISTSGGSTYYADSVKGRFTISRDYAKNTVYLQLISLKPEDTAVYYCNARAPFSSAQPTFLIDDGYHWGQGTQETVSS | low polyreactivity
29 | QVQLVESGGGLVQAGGSLRLSCAASGRTSVIYAMGWYRKAPGKERELVASIRRGGSTSYADSVKGRFTISRDNAKNTVYLQMNSLKPEDTAVYYCAARKRSVYGTEYDYWGQGTQVTVSS | high polyreactivity
30 | QVQLVESGGGLVQAGGSLRLSCAASGPIFTSNAMGWYRQAPGKERELVAAISRRGTRTYYADSVKGRFTISRDNAKNTVYLQMNSLKPEDTAVYYCAAGWTTRYFGGVDYWGQGTQVTVSS | high polyreactivity
31 | QVQLVETGAGLVQAGGSLRLSCAASGILLFNAMGWNTQPPGKERELVAAINSGGSTNYADSVKGRFTISRDNAKNTVYFQMNSLIPEDTAVYFCAKDTPFTLRVWAEGGMDYWGHGTQVTVSS | low polyreactivity
32 | HVQLVESAGGLVQAGGSLRLSCAASGSTIYGYAMGLYRQAPGKERELVAAITGSGGSTYYADSVKGRFTISRDNAKNTVYLQMNSLKPEDTAVYYCNAVRRYGLEYNYWGQGTQVTVSS | high polyreactivity
33 | QVQLVESGGGLVQAGGSLRLSCAASGIIFQRNAMGWYRQAPGKERELVAAISASGGSTNYADSVKGRFTISRDNAKNTVYLQMNSLKPEDTAVYYCAVPARGTFLLRDGGRAEFDYWGQGTQVTVSS | low polyreactivity
34 | QVQHVESGRGLVQAGGILRLTCAASGRTFEYYAMGWYRQAPGKERELVAAITYSGDSTYYADSVKGRFTISRDNAKNTFYLQMNSLKPEDTAVYYCAADWSSLKDDYWGQGTQVTVSS | low polyreactivity
35 | QVQLVDSGGGLVQAGGSLRISCAASGSIFPPYAMGWSRQAPGKERELVAAITYSGVRTYYADSVKGRFTISRDNAKNTVYLQMNSLKPEDTAVYYCAAVYRRGIGYPFGYWGQGTQVSVSS | high polyreactivity
36 | QVQLVESGGGLVQAGGSLRLSCAASGSIFTYYTMGWYRQAPGKERELVAAIRWSAGRTYYADSVKGRFTISRDNAKNTVYLQMNSLKPEDTAVYYCAAAERLRHGLKFDYWGQGTQVTVSS | high polyreactivity
37 | QVQLVESGGGLVQAGGSLRLSCAASGRIFYGYAMGWYRQAPGKERELVASITVSRTSTYYADSVKGRFTISRDNAKNTVYLQMNSLKPEDTAVYYCAVGDGFEYDWGQGTQVTVSS | low polyreactivity
38 | QVQLVESGGGLVQAGGSLRISCAASGRTLFNKARGRYRQAPGKERELVAAINWSGTSTYYADSVKGRFTISRDNAKNTVYLQMNSLKPEDTAVYYCAARYSTVSTRRKPYNYWGQGTQVTVSS | high polyreactivity
39 | QVQLVESGGGLVQAGGSLRLSCAASGSTFSDNAMGWYRQAPGKERELVAAITSGGSTYYADSVKGRFTISRDNAKNTVYLQMNSLKPEDTAVYYCAADYWGQGTQVTVSS | low polyreactivity
40 | QVQLVESGGLLVQAGGSLSLSCAASGRTFTPNAMGWYRQAPGKEREFVAAITYYGGSTRYADSVKGRFTISRDNAKNTVYLQMNSLIPEDTAVYYCAADVHYRYFYSWSSYSGYGYWGQGTQVTVSS | low polyreactivity
41 | QVQLVESGGGLVQAGGSLRLSCAASGFTLYTYAMGWYRQAPGKERELVAAISTGGGRTYYADSVKGRFTISRDNAKNTVYLQMNSLKPEDTAVYYCAADSLAKTGGTVGGDYWGQGTQVSVSS | high polyreactivity
42 | QVQLVESGGGLVQAGGSLRLSCAASGFIFYRYSMGWYRQAPGIERELVAAIRSSGGSTYYADSVKGRFSISRDNAKNTVYRHMNSLKPQDTAVYYCAKCFSSVLWNGIWPYDYWGQGTQVTVSS | low polyreactivity
43 | QVQLVESGGGLVQAGGSLRLSCAACGSTFIPNGMGLYRQAPGKERELVAAITQDGGSTYYADSVKGRFTISRDNAKNTVYLQMNSLKPEDTAVYYCAASAGPYYEYGYWGQGTQVTVSS | low polyreactivity
